Target: T1, chicken FANCD2, wild type, purified recombinant (chicken, UniProt Q68Y81 1-1439)
T1 construct: FANCD2, chicken (Gallus gallus); also called cFANCD2; WT cFANCD2; source: E. coli BL21(DE3) codon(+)RIL, purified
Assay: SEC; Superdex 200 10/300 GL; equimolar mixture of cFANCD2 and cFANCI; 20 mM Tris-HCl (pH 8.0), 10% glycerol, 200 mM NaCl, 5 mM 2-mercaptoethanol; fractions on 7% SDS-PAGE, silver staining
Conditions: both partners purified

T1 sequence (Q68Y81 whole entry): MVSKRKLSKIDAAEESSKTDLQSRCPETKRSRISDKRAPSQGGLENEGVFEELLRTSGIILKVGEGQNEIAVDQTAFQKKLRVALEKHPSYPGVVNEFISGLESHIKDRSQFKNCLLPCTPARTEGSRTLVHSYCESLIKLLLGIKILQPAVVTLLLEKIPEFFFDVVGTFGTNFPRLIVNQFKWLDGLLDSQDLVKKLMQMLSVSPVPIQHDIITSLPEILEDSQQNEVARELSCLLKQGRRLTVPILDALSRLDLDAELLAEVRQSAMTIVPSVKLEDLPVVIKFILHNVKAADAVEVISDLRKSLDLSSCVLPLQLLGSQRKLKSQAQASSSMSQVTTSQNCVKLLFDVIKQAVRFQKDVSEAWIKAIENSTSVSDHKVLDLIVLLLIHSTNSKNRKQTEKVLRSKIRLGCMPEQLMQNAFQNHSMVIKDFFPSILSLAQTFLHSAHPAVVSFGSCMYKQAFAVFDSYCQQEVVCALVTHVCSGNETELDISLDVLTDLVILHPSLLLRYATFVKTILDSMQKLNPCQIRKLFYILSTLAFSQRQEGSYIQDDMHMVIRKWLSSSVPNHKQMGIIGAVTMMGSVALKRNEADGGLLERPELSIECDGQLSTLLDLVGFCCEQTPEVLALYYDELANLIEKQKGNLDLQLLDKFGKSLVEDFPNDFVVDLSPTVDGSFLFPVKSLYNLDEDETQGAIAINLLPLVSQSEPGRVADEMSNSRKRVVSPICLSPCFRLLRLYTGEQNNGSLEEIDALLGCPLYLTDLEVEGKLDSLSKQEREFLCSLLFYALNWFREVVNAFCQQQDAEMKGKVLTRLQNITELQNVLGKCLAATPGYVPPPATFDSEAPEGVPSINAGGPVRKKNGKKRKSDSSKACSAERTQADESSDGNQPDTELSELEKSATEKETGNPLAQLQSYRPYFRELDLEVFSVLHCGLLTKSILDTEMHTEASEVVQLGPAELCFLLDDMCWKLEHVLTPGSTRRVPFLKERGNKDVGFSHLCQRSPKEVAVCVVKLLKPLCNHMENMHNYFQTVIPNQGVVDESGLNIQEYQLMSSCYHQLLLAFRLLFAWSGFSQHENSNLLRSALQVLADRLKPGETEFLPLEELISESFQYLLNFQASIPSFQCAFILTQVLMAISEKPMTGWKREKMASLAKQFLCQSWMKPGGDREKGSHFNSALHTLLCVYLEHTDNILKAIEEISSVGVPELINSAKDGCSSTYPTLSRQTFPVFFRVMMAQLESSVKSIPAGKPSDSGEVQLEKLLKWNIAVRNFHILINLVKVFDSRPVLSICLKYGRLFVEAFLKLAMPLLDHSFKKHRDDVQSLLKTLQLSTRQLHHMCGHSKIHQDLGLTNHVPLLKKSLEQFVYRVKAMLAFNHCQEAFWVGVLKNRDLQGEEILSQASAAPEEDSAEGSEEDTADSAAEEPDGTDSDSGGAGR

binding result: binds
B1: chicken FANCI, wild type, purified recombinant (natural protein, UniProt B0I564 1-1338, looked up)
chain: MAQRILQLAAEGSPERLQEALQGLTEGELGDMVTRQALRGRETAALLKGIFKGSPCSQQSGVLRRLQVYKHCVSLVESGDLHVGKVSEIIGLLMLEARQLPGHALAELATLFVEVIKRGSLSNGKSLELFSTVLTALSNSKESLAYGKGELNGEEFKKQLINTLCSSKWDPQCVIHLANMFRDIPLSGEELQFVVEKVLRMFSKLDLQEIPPLVYQLLLLSAKGSKKTVLEGIISFFNQLDKRQKEEQRVPQSADLEVATVPLDQLRHVEGTVILHIVSAINLDQDIGEELIKHLKTEQQKDPGKALCPFSVSLLLSTAVKHRLQEQIFDFLKTSITRSCKDLQILQASKFLQDLCPQQYDVTAVILEVVKNSAFGWDHVTQGLVDLGFSLMESYEPKKSFGGKAAETNLGLSKMPAQQACKLGASILLETFKVHEPIRSDILEQVLNRVLTKAASPVSHFIDLLSNIVVSAPLVLQNSSSRVTETFDNLSFLPIDTVQGLLRAVQPLLKVSMSVRDSLILVLQKAIFSRQLDARKAAVAGFLLLLRNFKILGSLTSSQCSQAIGATQVQADVHACYNSAANEAFCLEILGSLRRCLSQQADVRLMLYEGFYDVLRRNSQLASSIMETLLSQIKQYYLPQQDLLPPLKLEGCIMAQGDQIFLQEPLAHLLCCIQHCLAWYKSTVHLCKGAEDEEEEEDVGFEQNFEEMLESVTRRMIKSELEDFELDKSADFSPSSGVGVKNNIYAIQVMGICEVLIEYNFKIGNFSKNKFEDVLGLFTCYNKLSEILKEKAGKNKSTLGNRIARSFLSMGFVSTLLTALFRDNAQSHEESLAVLRSSTEFMRYAVSVALQKVQQLEEMGQTDGPDGQNPEKMFQNLCKITRVLLWRYTSIPTAVEESGKKKGKSISLLCLEGLLRIFNTMQQLYAARIPQFLQALDITDGDAEEADINVTEKAAFQIRQFQRSLVNQLSSAEDDFNSKETQLLITILSTLSKLLDPGSQQFLQFLTWTVKICKENALEDLSCCKGLLTLLFSLHVLYKSPVSLLRELAQDIHACLGDIDQDVEIESRSHFAIVNVKTAAPTVCLLVLGQADKVLEEVDWLIKRLTILGSDTSEDSTQASNQTQALEKGVILQLGTLLTVFHELVQTALPAGSCVDSLLRSLSKTYAILTSLIKHYIQACRSTSNTVPGRLEKLVKLSGSHLTPQCYSFITYVQNIHSESLSFAEEKKKKKKEDETAVVSTVMAKVLRDTKPIPNLIFAIEQYEKFLIHLSKKSKVNLMQYMKLSTSRDFRINASMLDSVLQEQNTEDAENEPDNNQSGTAEQPDENQEPQKKRRRKK
notes: FANCI, chicken (Gallus gallus); also called cFANCI; WT cFANCI; source: E. coli BL21(DE3) codon(+)RIL, purified
